The test concerns the target T1, human transferrin receptor (recombinant, for surface plasmon resonance) (human, UniProt P02786 89-760).
T1 construct: also called huTfR; human transferrin receptor-biotinylated
As to the kind of experiment: SPR 25C.

In general, koff refers to the first-order rate constant of dissociation.

Residue numbers refer to the chain shown, from its start.

T1 sequence (P02786 89-760 limits assumed): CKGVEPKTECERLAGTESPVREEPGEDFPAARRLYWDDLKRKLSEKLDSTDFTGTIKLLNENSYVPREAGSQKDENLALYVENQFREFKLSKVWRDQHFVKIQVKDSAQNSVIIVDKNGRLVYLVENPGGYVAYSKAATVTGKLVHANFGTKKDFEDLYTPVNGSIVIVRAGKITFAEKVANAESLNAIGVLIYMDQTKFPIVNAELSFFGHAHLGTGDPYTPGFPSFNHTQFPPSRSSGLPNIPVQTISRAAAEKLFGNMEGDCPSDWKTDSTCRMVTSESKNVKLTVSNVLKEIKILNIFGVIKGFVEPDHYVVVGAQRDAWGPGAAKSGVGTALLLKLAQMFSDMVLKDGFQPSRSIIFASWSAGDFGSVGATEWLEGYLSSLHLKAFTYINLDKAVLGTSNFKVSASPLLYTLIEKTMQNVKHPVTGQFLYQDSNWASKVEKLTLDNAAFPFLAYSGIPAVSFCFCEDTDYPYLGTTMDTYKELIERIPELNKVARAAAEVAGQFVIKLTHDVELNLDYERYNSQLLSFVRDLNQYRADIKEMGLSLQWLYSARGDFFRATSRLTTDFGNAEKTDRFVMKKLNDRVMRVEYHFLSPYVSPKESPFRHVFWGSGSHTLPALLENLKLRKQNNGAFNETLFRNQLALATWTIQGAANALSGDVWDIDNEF

B1: 2/99 VH19/VL2 (antibody, V domains shown)
VH: QSMQESGPGLVKPSQTLSLTCTVSGFSLSSYAMSWIRQHPGKGLEWIGYIWSGGSTDYAPSLKSRVTISVDTSKNQFSLKLSSVTAADTAVYYCARRYGTSYPDYGDANGFDPWGQGTLVTVSS
VL: DIQMTQSPSSLSASVGDRVTITCRASQSISSYLNWYQQKPGKAPKLLIYRASTLASGVPSRFSGSGSGTDFTLTISSLQPEDFATYYCQQSYSSSNVDNTFGGGTKVEIK
Regarding B1, the koff was 0.00769 s⁻¹.

B2: 2/99 VH9/VL3 (antibody, V domains shown)
VH: QQLLESGGGLVQPGGSLRLSCAASGFTFSSYAMSWVRQAPGKGLEWVGYIWSGGSTDYADSVKGRFTISRDNSKNTLYLQMNSLRAEDTAVYYCAKRYGTSYPDYGDANGFDPWGQGTLVTVSS
VL: B1 VL with D1A, I2Y
For B2, the koff was found to be 0.00417 s⁻¹.

B3: 2/99 VH15/VL3 (antibody, V domains shown)
VH: B1 VH with S2Q, M3L, Q15E, I36V, H39P, A59N, F77V
VL: B1 VL with D1A, I2Y
For the molecule B3, the koff is 0.00207 s⁻¹.

B4: 2/99 VH1/VL3 (antibody, V domains shown)
VH: B2 VH with Q1V, L4V, S6T, V11I, T27S, F28L, K96R
VL: B1 VL with D1A, I2Y
As to B4, the koff was 0.00431 s⁻¹.

B5: 2/99 VH21/VL3 (antibody, V domains shown)
VH: B1 VH with P60S, S61W, L62A, F77V
VL: B1 VL with D1A, I2Y
Take B5: the koff worked out at 0.00194 s⁻¹.

B6: 2/99 VH12/VL3 (antibody, V domains shown)
VH: QVQLQESGPGLVKPSETLSLTCTVSGFSLSSYAMSWIRQPPGKGLEWIGYIWSGGSTDYNPSLKSRVTISVDTSKNQFSLKLSSVTAADTAVYYCARRYGTSYPDYGDANGFDPWGQGTLVTVSS
VL: B1 VL with D1A, I2Y
As for B6, the koff was 0.00586 s⁻¹.

B7: 2/99 VH1/VL4 (antibody, V domains shown)
VH: B2 VH with Q1V, L4V, S6T, V11I, T27S, F28L, K96R
VL: B1 VL with D1A, I2Y, N34S
B7: the koff came out at 0.00256 s⁻¹.

B8: 2/99 VH22/VL2 (antibody, V domains shown)
VH: B1 VH with I36V, P60S, S61W, L62A, F77V
VL: B1 VL
B8: the koff turned out to be 0.00126 s⁻¹.

B9: 2/99 VH11/VL3 (antibody, V domains shown)
VH: B2 VH with T27S, F28L, K96R
VL: B1 VL with D1A, I2Y
Regarding B9, the koff came to 0.00565 s⁻¹.

B10: 2/99 VH13/VL3 (antibody, V domains shown)
VH: B6 VH with F78V
VL: B1 VL with D1A, I2Y
On to B10, for which the koff turned out to be 0.00277 s⁻¹.

B11: 2/99 VH2/VL4 (antibody, V domains shown)
VH: EVQLVETGGGLIQPGGSLRLSCAASGFSLSSYAMSWVRQAPGKGLEWVGYIWSGGSTDYADSVKGRFTISRDNSKNTLYLQMNSLRAEDTAVYYCARRYGTSYPDYGDANGFDPWGQGTLVTVSS
VL: B1 VL with D1A, I2Y, N34S
In the case of B11, the koff stood at 0.00263 s⁻¹.

B12: 2/99 VH20/VL2 (antibody, V domains shown)
VH: B1 VH with F77V
VL: B1 VL
With B12, the koff came to 0.00525 s⁻¹.

B13: 2/99 VH20/VL3 (antibody, V domains shown)
VH: B1 VH with F77V
VL: B1 VL with D1A, I2Y
Take B13: the koff is 0.00715 s⁻¹.

B14: 2/99 VH7/VL3 (antibody, V domains shown)
VH: B2 VH with L4V, S6T, V11I, T27S, F28L, V47I, D60S, S61W, V62A, K96R
VL: B1 VL with D1A, I2Y
For B14, the koff stood at 0.00145 s⁻¹.

B15: 2/99 VH22/VL3 (antibody, V domains shown)
VH: B1 VH with I36V, P60S, S61W, L62A, F77V
VL: B1 VL with D1A, I2Y
B15: the koff turned out to be 0.00143 s⁻¹.

B16: 2/99 VH21/VL2 (antibody, V domains shown)
VH: B1 VH with P60S, S61W, L62A, F77V
VL: B1 VL
Consider B16, for which the koff worked out at 0.00138 s⁻¹.

B17: 2/99 VH2/VL3 (antibody, V domains shown)
VH: B11 VH
VL: B1 VL with D1A, I2Y
With B17, the koff came to 0.00384 s⁻¹.

B18: 2/99 VH6/VL3 (antibody, V domains shown)
VH: B2 VH with L4V, S6T, V11I, T27S, F28L, V47I, K96R
VL: B1 VL with D1A, I2Y
Consider B18, for which the koff came to 0.00282 s⁻¹.

B19: 2/99 VH16/VL3 (antibody, V domains shown)
VH: B1 VH with S2Q, M3L, Q15E, I36V, H39P, A59N, F77V, Q116P
VL: B1 VL with D1A, I2Y
For the molecule B19, the koff amounted to 0.00173 s⁻¹.

B20: 2/99 VH17/VL3 (antibody, V domains shown)
VH: B1 VH with S2Q, M3L, Q15E, I36V, H39P, A59N, V70K, F77V, Q116P
VL: B1 VL with D1A, I2Y
For the molecule B20, the koff is 0.000843 s⁻¹.

B21: 2/99 VH5/VL3 (antibody, V domains shown)
VH: B2 VH with Q2S, L3M, L4E, S6T, V11I, T27S, F28L, K96R, Q116P
VL: B1 VL with D1A, I2Y
Consider B21, for which the koff is 0.00316 s⁻¹.

B22: 2/99 VH8/VL3 (antibody, V domains shown)
VH: QQLVETGGGLIQPGGSLRLSCAASGFSLSSYAMSWVRQAPGKGLEWIGYIWSGGSTDYASWAKGRFTISKTSTTLYLQMNSLRAEDTAVYYCARRYGTSYPDYGDANGFDPWGQGTLVTVSS
VL: B1 VL with D1A, I2Y
Turning to B22, the koff was 0.001 s⁻¹.

B23: 2/99 VH23-DANG/VL3 (antibody, V domains shown)
VH: QSMQESGPGLVKPSQTLSLTCTVSGFSLSSYAMSWIRQHPGKGLEWIGYIWSGGSTDYASWAKSRVTISKTSTTVSLKLSSVTAADTAVYYCARRYGTSYPDYGDANGFDPWGQGTLVTVSS
VL: B1 VL with D1A, I2Y
For B23, the koff stood at 0.000783 s⁻¹.

B24: 2/99 VH18/VL3 (antibody, V domains shown)
VH: B6 VH with E16Q, P40H, N60A
VL: B1 VL with D1A, I2Y
B24: the koff is 0.00665 s⁻¹.

B25: 2/99 VH19/VL3 (antibody, V domains shown)
VH: B1 VH
VL: B1 VL with D1A, I2Y
Take B25: the koff was 0.001 s⁻¹.

The values above are taken from US20180291110A1 (Hoffmann-La Roche, published 2018).
